From the nanobody polyreactivity screen of Harvey et al. (2022) come the findings set out here.

The data set can be described thus: yeast display, Sf9 membrane polyspecificity reagent, FACS + sequencing; frameworks hold sequencing errors. A digest of the protocol:
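After 36–48 hours of galactose induction, yeast (Saccharomyces cerevisiae BJ5465) displaying a synthetic nanobody library were stained at 4 °C for 1 hour with 10% biotinylated, detergent-solubilized Sf9 membrane reagent. Streptavidin microbeads enriched the stained cells before FACS sorting into low and high (top ~1%) gates on anti-HA and streptavidin fluorescence. Each clone's polyreactivity label reflects its gate of origin.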
As for “QVQLVESGGGLVQAGGSLRLSCAASGRTFGYNTMGWYRQAPGKERELVARITWSGASTYYADSVKGRFTISRDNAKNTVYLQMNSLKPEDTAVYYCNTAYTVSWRSPYDYWGQGTQVTVSS”, the “polyreactivity (PSR sort gate)” value is “high polyreactivity”.

As for “QVQLVESGGGLVQAGGSLRLSCAASGRTFGYNTMGWYRQAPGKERELVATISRGGSTYYADSVKGRFTISRDNAKNTVYLQMNSLKPEDTAVYYCRYQSRFRYDYWGQGTQVTVSS”, the “polyreactivity (PSR sort gate)” value is listed as “high polyreactivity”.

Turning to “QVQLVESGGGLVQAGGSLRLSCAASGRTFGYNTMGWYRQQPGKEREFVAAINYSGGSTYYADSVKGRFTISRDYGKNTVYLQMNSLKPEDTAVYYCNAKPRWYVPYDYWGQGTQVTVSS”, the “polyreactivity (PSR sort gate)” value is on record as “high polyreactivity”.

In the case of “QVQLVESGGGLVQAGGSLRLSCAASGRTFGYNVMGWYRQAPGKARELVAGIRYSGGSTYYADSVKGRFTISRDNAKNTVYLQMNSLKPEDTAVYYCHAVDRNQYDYWGQGTQVTVSS”, the “polyreactivity (PSR sort gate)” value is “high polyreactivity”.

As to “QVQLVESGGGLVQAGGSLRLSCAASGRTFGYYAMGWYRKAPGKERELVAAISWRGTSTYYADSVKGRFTISRDNAKNTVYLQMNSLKPEDTAVYYCAVGRTVAHRFIAGDYWGQGTQVTVSS”, the “polyreactivity (PSR sort gate)” value is recorded as “high polyreactivity”.

Take “QVQLVESGGGLVQAGGSLRLSCAASGRTFGYYAMGWYRQAPGKEREFVAAISHSAGSTSYADSVKGRFTISRDNAKNTVYLQMNSLKPEDTAVYYCAADNPWYEMDYWGQGTQVTVSS”: the “polyreactivity (PSR sort gate)” value is recorded as “low polyreactivity”.

As to “QVQLVESGGGLVQAGGSLRLSCAASGRTFGYYAMGWYRQAPGKERELVAAISSSGGSTYYADSVKGRFTISRDNAKNTVYLQMNSLKPEDTAVYYCAARFANGGGYWGQGTQVTVSS”, the “polyreactivity (PSR sort gate)” value is “high polyreactivity”.

Regarding “QVQLVESGGGLVQAGGSLRLSCAASGRTFGYYAMGWYRQAPGKERELVATITFGGGSTYYADSVKGRFTISRDNAKNTVYLQMNSLKPEDTAVYYCAADTSVHSEVDYWGQGTQVTVSS”, the “polyreactivity (PSR sort gate)” value was “low polyreactivity”.

Take “QVQLVESGGGLVQAGGSLRLSCAASGRTFGYYAMGWYRQAPGQERELVAAISSGGGTYYADSVKGRFTISRDNAKNTVYVQMNSLKPEDTAVYYCAATGWVYWGQFDYWGEGTQVTVSS”: the “polyreactivity (PSR sort gate)” value is reported as “low polyreactivity”.

Regarding “QVQLVESGGGLVQAGGSLRLSCAASGRTFGYYAMGWYRQATGKERELVAAISWSDSGTYYADSVKGRFTISRDNAKNTVYLQMNSLKPEDTAVYYCAKDEPYFVFRDTYDYWGQGTQVTVSS”, the “polyreactivity (PSR sort gate)” value is listed as “high polyreactivity”.

On to “QVQLVESGGGLVQAGGSLRLSCAASGRTFGYYTMGWYRQAPGKERELVAAITSSGGSTYYADSVKGRFTISRDNAKNTVYLQMNSLKPEDTAVDYCAARAAYYFLYSAMYYWGQGTQVTVSS”, for which the “polyreactivity (PSR sort gate)” value is on record as “high polyreactivity”.

As for “QVQLVESGGGLVQAGGSLRLSCAASGRTFGYYTMGWYRQAPGKERELVAAITWSGSTYYADSVKGRFTISRDNAKNTVYLQMNSLKPEDTAVYYCAVEIYYFVYGISYDYWGQGTQVTVSS”, the “polyreactivity (PSR sort gate)” value is given as “high polyreactivity”.

Take “QVQLVESGGGLVQAGGSLRLSCAASGRTFGYYTMGWYRQAPGKEWELVATITRGGTTKYADSVKGRFTISRDNAKNTVYLQMNSLKPEDTAVYYCNARERGSRQYTFDYWGQGTQVTVSS”: the “polyreactivity (PSR sort gate)” value was “high polyreactivity”.

Regarding “QVQLVESGGGLVQAGGSLRLSCAASGRTFGYYVMGWSRQAPGKETELVAAISNTDSTYYADSVKGRFTISRDNAKNTVYLQMNSLKPEDTAVYYCARDDAYSDFDYDYWGQGTQVTVSS”, the “polyreactivity (PSR sort gate)” value is on record as “low polyreactivity”.

In the case of “QVQLVESGGGLVQAGGSLRLSCAASGRTFHIYAMGWYRQAPGKERELVAAIRGRSGSTYYADSVKGRFTISRDNAKNTVYLQLNSLKPEDTAVYYCAVGRYPYGSARYRFDYWGQGTQVTVSS”, the “polyreactivity (PSR sort gate)” value is on record as “high polyreactivity”.

With “QVQLVESGGGLVQAGGSLRLSCAASGRTFHNYAMGWYRQAPGKEREFVAVITGSGGRTYYADSVKGRFTISRDNAKNTVYLQMNSLKPEDTAVYYCNRVSRYYLYDYWGQGTQVTVSS”, the “polyreactivity (PSR sort gate)” value is “high polyreactivity”.

In the case of “QVQLVESGGGLVQAGGSLRLSCAASGRTFHPYAMGWYRQAPGKERELVAAITISTNYADSVKGRFTISRDNAKNTVSLQMNSVKPEDTAVYYCNADFVRPSWARGRNNGLYYWGQGTQVTVSS”, the “polyreactivity (PSR sort gate)” value is “low polyreactivity”.

For the sequence “QVQLVESGGGLVQAGGSLRLSCAASGRTFHPYAMGWYRQAPGKERELVAAITSIGGSTFYADSVKGRFTISRDNAKNNVYLQLTSLKPEDTAVYFCNAESSYYYGTAAYEYWGQGTQVSVSS”, the “polyreactivity (PSR sort gate)” value is on record as “low polyreactivity”.

On to “QVQLVESGGGLVQAGGSLRLSCAASGRTFHRYVMGWYRQAPGKERELVAAITRSGGITYYADSVKGRFTISRDNAKNTVYLQMNSLKPEDTAVYYCAKDDQTASGFDYWGQGTQVTVSS”, for which the “polyreactivity (PSR sort gate)” value was “low polyreactivity”.

As to “QVQLVESGGGLVQAGGSLRLSCAASGRTFHSYAMGWYRQAPGKERELVAAITSSGGSTYYADSVKGRFTISRDNAKNTVYLQMNSLKPEDTAVYYGNAYVRYGYGYYYWGQGTQVTVSS”, the “polyreactivity (PSR sort gate)” value was “high polyreactivity”.

For the sequence “QVQLVESGGGLVQAGGSLRLSCAASGRTFHWYTLGWYRQAPGKEREFVAGINWSGARTYYADSVKGRFTISRDNAKNTVYLQMNSLKPEDTAVYYCNKRDRYRLYGYNYWGQGTQVTVSS”, the “polyreactivity (PSR sort gate)” value is listed as “high polyreactivity”.

For “QVQLVESGGGLVQAGGSLRLSCAASGRTFHYYTMGWYRQAPGKERELVAAISQSGGRTYYADSVKGRFTISRDNAKNTVYLQMNSLKPEDTAVYYCAAVSWRVISDYRIVGYDYWGQGTQVTVSS”, the “polyreactivity (PSR sort gate)” value is listed as “low polyreactivity”.

In the case of “QVQLVESGGGLVQAGGSLRLSCAASGRTFIANAMGWYRQAPGKERELVAVITLNGGSTYYADSVKGRFTISRDNAKNTVYLQMNSLKPEDTAVYYCAAGRYYKLRATHGYWGQGTQVTVSS”, the “polyreactivity (PSR sort gate)” value was “low polyreactivity”.

As to “QVQLVESGGGLVQAGGSLRLSCAASGRTFIGYAMGWYRQAPGKERELVATISVSGGSTYYADSVKGRFTISRDNAKNTVYLQMNSLKPEDTAVYYCAKAYLRFYDGPYDYWGQGTQVTVSS”, the “polyreactivity (PSR sort gate)” value is reported as “low polyreactivity”.

With “QVQLVESGGGLVQAGGSLRLSCAASGRTFIINTMGWYRQAPGKERELVAAISKNGATTNYADSVKGRFTISSDNAKNSVYLQMNSLKPEDTAVYYCNARYSGYLRLDYWGQGTQVTVSS”, the “polyreactivity (PSR sort gate)” value is “low polyreactivity”.

Regarding “QVQLVESGGGLVQAGGSLRLSCAASGRTFILNAMGWYRQAPGKERELVAAISWSGGSTYYADSVKGRFTISRDNAKNTVYLQMNCLKPEDTAVYYCAKRYVDPLGSGTHGSWGQGTQVTVSS”, the “polyreactivity (PSR sort gate)” value was “low polyreactivity”.

With “QVQLVESGGGLVQAGGSLRLSCAASGRTFIPYAMGWYRQAPGKERELVAAITSSGGRTYYADSVKGRFTISRDNAKNTVYLQMNSLKPEDTAVYYCNKYARGYDMDYWGQGTQVTVSS”, the “polyreactivity (PSR sort gate)” value is listed as “high polyreactivity”.

As for “QVQLVESGGGLVQAGGSLRLSCAASGRTFIPYAMGWYRQAPGKERELVATIRRGGSTYYADSVKGSFTISRDNAKNTVYLQMNSLKPEDTAVYYCAATRYSFGPRRVDYWGQGTQVSVSS”, the “polyreactivity (PSR sort gate)” value is recorded as “high polyreactivity”.

As for “QVQLVESGGGLVQAGGSLRLSCAASGRTFISYAMGWYRQAPGKERELVAAISSSGGSTYYADSVKGRFTISRDNAKNTVYLQMNSLIPEDTAVYYCNADSSASTYTFPFDYWGQGTQVTVSS”, the “polyreactivity (PSR sort gate)” value is listed as “low polyreactivity”.

Take “QVQLVESGGGLVQAGGSLRLSCAASGRTFISYAMGWYRQAPGKERELVAGISRGGSTYYADSVKGRFTISRDNAMNTVYLQMNRLKPEDTAVYYCAARRWISSHSYKYGYWGQGTQVTVSS”: the “polyreactivity (PSR sort gate)” value is reported as “high polyreactivity”.
